In IntAct's records for PubMed 19696444:

B1: Anosmin-1 (Homo sapiens), P23352 (parent)
chain: MVPGVPGAVLTLCLWLAASSGCLAAGPGAAAARRLDESLSAGSVQRARCASRCLSLQITRISAFFQHFQNNGSLVWCQNHKQCSKCLEPCKESGDLRKHQCQSFCEPLFPKKSYECLTSCEFLKYILLVKQGDCPAPEKASGFAAACVESCEVDNECSGVKKCCSNGCGHTCQVPKTLYKGVPLKPRKELRFTELQSGQLEVKWSSKFNISIEPVIYVVQRRWNYGIHPSEDDATHWQTVAQTTDERVQLTDIRPSRWYQFRVAAVNVHGTRGFTAPSKHFRSSKDPSAPPAPANLRLANSTVNSDGSVTVTIVWDLPEEPDIPVHHYKVFWSWMVSSKSLVPTKKKRRKTTDGFQNSVILEKLQPDCDYVVELQAITYWGQTRLKSAKVSLHFTSTHATNNKEQLVKTRKGGIQTQLPFQRRRPTRPLEVGAPFYQDGQLQVKVYWKKTEDPTVNRYHVRWFPEACAHNRTTGSEASSGMTHENYIILQDLSFSCKYKVTVQPIRPKSHSKAEAVFFTTPPCSALKGKSHKPVGCLGEAGHVLSKVLAKPENLSASFIVQDVNITGHFSWKMAKANLYQPMTGFQVTWAEVTTESRQNSLPNSIISQSQILPSDHYVLTVPNLRPSTLYRLEVQVLTPGGEGPATIKTFRTPELPPSSAHRSHLKHRHPHHYKPSPERY

Variants of: B1
Details: with fgfr1_human FGFR1, P11362
Chain of fgfr1_human FGFR1, P11362 (P11362 whole entry, looked up): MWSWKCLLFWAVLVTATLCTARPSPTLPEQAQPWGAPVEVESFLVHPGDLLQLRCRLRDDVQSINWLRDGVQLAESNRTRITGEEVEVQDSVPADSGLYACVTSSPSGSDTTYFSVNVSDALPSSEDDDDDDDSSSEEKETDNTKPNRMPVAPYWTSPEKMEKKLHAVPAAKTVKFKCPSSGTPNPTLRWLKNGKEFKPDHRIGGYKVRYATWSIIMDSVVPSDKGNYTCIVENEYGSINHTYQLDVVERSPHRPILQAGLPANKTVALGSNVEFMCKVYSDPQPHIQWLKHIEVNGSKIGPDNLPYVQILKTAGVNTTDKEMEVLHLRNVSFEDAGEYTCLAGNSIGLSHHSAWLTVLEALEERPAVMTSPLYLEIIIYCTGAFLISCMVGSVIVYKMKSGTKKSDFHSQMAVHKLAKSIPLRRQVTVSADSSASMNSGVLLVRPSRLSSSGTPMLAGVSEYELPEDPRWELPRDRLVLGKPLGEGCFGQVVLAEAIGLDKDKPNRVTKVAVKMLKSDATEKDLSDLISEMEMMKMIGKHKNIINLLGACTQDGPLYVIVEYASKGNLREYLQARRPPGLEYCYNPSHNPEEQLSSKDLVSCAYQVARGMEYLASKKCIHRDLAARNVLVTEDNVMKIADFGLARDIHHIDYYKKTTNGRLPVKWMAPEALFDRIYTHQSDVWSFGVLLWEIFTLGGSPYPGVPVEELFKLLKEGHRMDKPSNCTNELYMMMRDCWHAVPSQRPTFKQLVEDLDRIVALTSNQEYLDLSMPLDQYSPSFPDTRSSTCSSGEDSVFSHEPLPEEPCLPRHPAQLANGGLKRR

Row | Variant | effect of a mutation on the interaction
1 | N267K | disrupting interaction
